Laboratory results from the supplement of paper PMC10567573.

B1: STK38L (parent)
chain: RQLAYSTVGTPDYIAPEVFMQTGY

Variants of: B1
Experiment: protein stability index of a GFP-peptide fusion (GPS, HEK-293T) (PSI 1-6); higher = more stable
Details: c terminus: a fixed tail appended
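Note: lentivirally expressed fusions sorted by FACS into six bins by GFP to DsRed ratio, PSI derived from sequencing read proportions per bin multiplied by bin number.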

Compared with RQFAYSTVGTPDYIAPEVFMQTGY [L3F], RQTAYSTVGTPDYIAPEVFMQTGY [L3T] is higher in protein stability index: 2.33 for the first, 2.84 for the second.

Compared with RQYAYSTVGTPDYIAPEVFMQTGY [L3Y], RQMAYSTVGTPDYIAPEVFMQTGY [L3M] is higher in protein stability index: 2.41 for the first, 2.72 for the second.

First: RQIAYSTVGTPDYIAPEVFMQTGY [L3I]
Second: RQWAYSTVGTPDYIAPEVFMQTGY [L3W]
The protein stability index of the first is higher: 2.24 for the first, 1.53 for the second.

First: RQQAYSTVGTPDYIAPEVFMQTGY [L3Q]
Second: RQVAYSTVGTPDYIAPEVFMQTGY [L3V]
The protein stability index of the first is lower: 2.61 for the first, 2.73 for the second.

First: RQRAYSTVGTPDYIAPEVFMQTGY [L3R]
Second: RQGAYSTVGTPDYIAPEVFMQTGY [L3G]
The protein stability index of the first is higher: 3.09 for the first, 2.74 for the second.

Compared with RQPAYSTVGTPDYIAPEVFMQTGY [L3P], RQEAYSTVGTPDYIAPEVFMQTGY [L3E] is higher in protein stability index: 2.44 for the first, 3.15 for the second.

First: RQKAYSTVGTPDYIAPEVFMQTGY [L3K]
Second: RQSAYSTVGTPDYIAPEVFMQTGY [L3S]
The protein stability index of the first is higher: 2.68 for the first, 2.65 for the second.

Compared with RQHAYSTVGTPDYIAPEVFMQTGY [L3H], RQNAYSTVGTPDYIAPEVFMQTGY [L3N] is higher in protein stability index: 2.43 for the first, 2.56 for the second.

Compared with RQDAYSTVGTPDYIAPEVFMQTGY [L3D], RQLAYSVVGTPDYIAPEVFMQTGY [T7V] is lower in protein stability index: 3.37 for the first, 2.04 for the second.

Going from RQLAYSSVGTPDYIAPEVFMQTGY [T7S] to RQLAYSYVGTPDYIAPEVFMQTGY [T7Y], the protein stability index falls from 2.11 to 2.07.

Going from RQLAYSDVGTPDYIAPEVFMQTGY [T7D] to RQLAYSHVGTPDYIAPEVFMQTGY [T7H], the protein stability index rises from 2.26 to 2.44.

Compared with RQLAYSLVGTPDYIAPEVFMQTGY [T7L], RQLAYSFVGTPDYIAPEVFMQTGY [T7F] is lower in protein stability index: 2.1 for the first, 1.62 for the second.

First: RQLAYSNVGTPDYIAPEVFMQTGY [T7N]
Second: RQLAYSIVGTPDYIAPEVFMQTGY [T7I]
The protein stability index of the first is higher: 2.51 for the first, 2.04 for the second.

First: RQLAYSEVGTPDYIAPEVFMQTGY [T7E]
Second: RQLAYSWVGTPDYIAPEVFMQTGY [T7W]
The protein stability index of the first is higher: 3.02 for the first, 1.79 for the second.

Going from RQLAYSRVGTPDYIAPEVFMQTGY [T7R] to RQLAYSGVGTPDYIAPEVFMQTGY [T7G], the protein stability index rises from 2.52 to 2.62.

First: RQLAYSQVGTPDYIAPEVFMQTGY [T7Q]
Second: RQLAYSMVGTPDYIAPEVFMQTGY [T7M]
The protein stability index of the first is higher: 3.12 for the first, 1.84 for the second.

Compared with RQLAYSKVGTPDYIAPEVFMQTGY [T7K], RQLAYSPVGTPDYIAPEVFMQTGY [T7P] is higher in protein stability index: 2.41 for the first, 3.26 for the second.

Compared with RQLAYSAVGTPDYIAPEVFMQTGY [T7A], RQLAYSCVGTPDYIAPEVFMQTGY [T7C] is lower in protein stability index: 2.76 for the first, 2.07 for the second.

Compared with RQLAYETVGTPDYIAPEVFMQTGY [S6E], RQLAYWTVGTPDYIAPEVFMQTGY [S6W] is lower in protein stability index: 3.3 for the first, 2.5 for the second.

Going from RQLAYHTVGTPDYIAPEVFMQTGY [S6H] to RQLAYKTVGTPDYIAPEVFMQTGY [S6K], the protein stability index falls from 2.63 to 2.43.

Going from RQLAYPTVGTPDYIAPEVFMQTGY [S6P] to RQLAYVTVGTPDYIAPEVFMQTGY [S6V], the protein stability index falls from 2.44 to 1.45.

Compared with RQLAYDTVGTPDYIAPEVFMQTGY [S6D], RQLAYLTVGTPDYIAPEVFMQTGY [S6L] is lower in protein stability index: 2.55 for the first, 2.08 for the second.

Compared with RQLAYITVGTPDYIAPEVFMQTGY [S6I], RQLAYTTVGTPDYIAPEVFMQTGY [S6T] is higher in protein stability index: 1.78 for the first, 2.21 for the second.

Compared with RQLAYQTVGTPDYIAPEVFMQTGY [S6Q], RQLAYFTVGTPDYIAPEVFMQTGY [S6F] is lower in protein stability index: 2.25 for the first, 1.65 for the second.

First: RQLAYATVGTPDYIAPEVFMQTGY [S6A]
Second: RQLAYRTVGTPDYIAPEVFMQTGY [S6R]
The protein stability index of the first is lower: 1.95 for the first, 2.79 for the second.

Going from RQLAYGTVGTPDYIAPEVFMQTGY [S6G] to RQLAYCTVGTPDYIAPEVFMQTGY [S6C], the protein stability index falls from 2.32 to 1.84.

Going from RQLAYNTVGTPDYIAPEVFMQTGY [S6N] to RQLAYYTVGTPDYIAPEVFMQTGY [S6Y], the protein stability index falls from 2.46 to 1.77.

Compared with RQLAYMTVGTPDYIAPEVFMQTGY [S6M], RQLAYSTAGTPDYIAPEVFMQTGY [V8A] is higher in protein stability index: 1.79 for the first, 2.59 for the second.

First: RQLAWSTVGTPDYIAPEVFMQTGY [Y5W]
Second: RQLAMSTVGTPDYIAPEVFMQTGY [Y5M]
The protein stability index of the first is lower: 2.13 for the first, 2.95 for the second.

Going from RQLANSTVGTPDYIAPEVFMQTGY [Y5N] to RQLADSTVGTPDYIAPEVFMQTGY [Y5D], the protein stability index rises from 3.26 to 3.59.

Going from RQLAQSTVGTPDYIAPEVFMQTGY [Y5Q] to RQLARSTVGTPDYIAPEVFMQTGY [Y5R], the protein stability index falls from 3.43 to 2.81.

First: RQLAESTVGTPDYIAPEVFMQTGY [Y5E]
Second: RQLACSTVGTPDYIAPEVFMQTGY [Y5C]
The protein stability index of the first is higher: 3.13 for the first, 2.38 for the second.

First: RQLATSTVGTPDYIAPEVFMQTGY [Y5T]
Second: RQLAISTVGTPDYIAPEVFMQTGY [Y5I]
The protein stability index of the first is lower: 2.51 for the first, 2.83 for the second.

Going from RQLAVSTVGTPDYIAPEVFMQTGY [Y5V] to RQLAKSTVGTPDYIAPEVFMQTGY [Y5K], the protein stability index rises from 2.36 to 2.58.

Compared with RQLALSTVGTPDYIAPEVFMQTGY [Y5L], RQLASSTVGTPDYIAPEVFMQTGY [Y5S] is higher in protein stability index: 2.84 for the first, 2.93 for the second.

First: RQLAGSTVGTPDYIAPEVFMQTGY [Y5G]
Second: RQLAASTVGTPDYIAPEVFMQTGY [Y5A]
The protein stability index of the first is lower: 3.03 for the first, 3.06 for the second.

First: RQLAHSTVGTPDYIAPEVFMQTGY [Y5H]
Second: RQLAPSTVGTPDYIAPEVFMQTGY [Y5P]
The protein stability index of the first is lower: 3.07 for the first, 3.42 for the second.

First: RQLAFSTVGTPDYIAPEVFMQTGY [Y5F]
Second: RQLSYSTVGTPDYIAPEVFMQTGY [A4S]
The protein stability index of the first is lower: 2.44 for the first, 2.65 for the second.

Going from RQLCYSTVGTPDYIAPEVFMQTGY [A4C] to RQLRYSTVGTPDYIAPEVFMQTGY [A4R], the protein stability index rises from 2.14 to 2.75.

First: RQLYYSTVGTPDYIAPEVFMQTGY [A4Y]
Second: RQLQYSTVGTPDYIAPEVFMQTGY [A4Q]
The protein stability index of the first is lower: 2.17 for the first, 3.1 for the second.

Compared with RQLTYSTVGTPDYIAPEVFMQTGY [A4T], RQLDYSTVGTPDYIAPEVFMQTGY [A4D] is lower in protein stability index: 2.55 for the first, 2.38 for the second.

Going from RQLMYSTVGTPDYIAPEVFMQTGY [A4M] to RQLVYSTVGTPDYIAPEVFMQTGY [A4V], the protein stability index falls from 2.6 to 2.02.

Compared with RQLIYSTVGTPDYIAPEVFMQTGY [A4I], RQLLYSTVGTPDYIAPEVFMQTGY [A4L] is higher in protein stability index: 1.77 for the first, 2.69 for the second.

Compared with RQLKYSTVGTPDYIAPEVFMQTGY [A4K], RQLNYSTVGTPDYIAPEVFMQTGY [A4N] is lower in protein stability index: 3.29 for the first, 2.52 for the second.

Compared with RQLPYSTVGTPDYIAPEVFMQTGY [A4P], RQLGYSTVGTPDYIAPEVFMQTGY [A4G] is higher in protein stability index: 2.39 for the first, 2.86 for the second.

Going from RQLFYSTVGTPDYIAPEVFMQTGY [A4F] to RQLEYSTVGTPDYIAPEVFMQTGY [A4E], the protein stability index rises from 1.89 to 2.8.

Compared with RQLWYSTVGTPDYIAPEVFMQTGY [A4W], RQLHYSTVGTPDYIAPEVFMQTGY [A4H] is higher in protein stability index: 1.64 for the first, 2.61 for the second.
